Source: patent US8586570

Assays:
[1] = test system: PKCα-S10
[2] = test system: PKCα-S9
[3] = test system: PKCα-S1

PKCθ, sequence (Q04759 whole entry): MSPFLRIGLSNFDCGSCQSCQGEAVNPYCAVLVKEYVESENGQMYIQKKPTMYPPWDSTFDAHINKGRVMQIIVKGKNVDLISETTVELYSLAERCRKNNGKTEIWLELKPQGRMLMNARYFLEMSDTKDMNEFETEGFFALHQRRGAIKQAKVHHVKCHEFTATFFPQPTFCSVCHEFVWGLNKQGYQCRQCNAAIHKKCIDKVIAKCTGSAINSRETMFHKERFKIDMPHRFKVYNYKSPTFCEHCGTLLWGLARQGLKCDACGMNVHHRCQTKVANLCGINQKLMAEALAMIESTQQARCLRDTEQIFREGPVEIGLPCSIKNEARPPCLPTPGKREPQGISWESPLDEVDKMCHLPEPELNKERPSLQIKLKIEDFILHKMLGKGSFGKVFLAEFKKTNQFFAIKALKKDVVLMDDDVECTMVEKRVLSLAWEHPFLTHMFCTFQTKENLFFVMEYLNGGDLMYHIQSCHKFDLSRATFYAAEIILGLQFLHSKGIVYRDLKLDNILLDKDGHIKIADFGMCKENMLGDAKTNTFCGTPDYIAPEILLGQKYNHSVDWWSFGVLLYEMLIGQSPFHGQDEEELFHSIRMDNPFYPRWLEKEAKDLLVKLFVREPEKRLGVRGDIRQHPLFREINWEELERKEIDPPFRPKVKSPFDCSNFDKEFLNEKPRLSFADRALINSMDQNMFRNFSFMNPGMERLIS

PKCδ
phosphorylation activity (1 µM peptide, 2 ng kinase) [1]: no activity is observed with PKCδ, PKCµ, and PKCν

PKCε
phosphorylation activity (1 µM peptide, 2 ng kinase) [1]: very little activity is detected with PKCε, PKCζ, PKCη and PKCι

PKCα
KM [2]: 0.093 µM
Vmax (µmol min^-1 mg^-1) (µmol min^-1 mg^-1) [2]: 1.8
Vmax/KM [2]: 160000 min⁻¹ mg⁻¹
KM [3]: 8.6 µM
Vmax (µmol min^-1 mg^-1) (µmol min^-1 mg^-1) [3]: 5.9
Vmax/KM [3]: 6200 min⁻¹ mg⁻¹
KM [1]: 0.12 µM
Vmax (µmol min^-1 mg^-1) (µmol min^-1 mg^-1) [1]: 2.2
Vmax/KM [1]: 149000 min⁻¹ mg⁻¹

PKCγ
phosphorylation activity (1 µM peptide, 2 ng kinase) [1]: PKCβII and PKCγ have comparable activities to that of PKCα

PKCβI
phosphorylation activity (1 µM peptide, 2 ng kinase) [1]: PKCβI and PKCθ are slightly more active than PKCα

PKCη
phosphorylation activity (1 µM peptide, 2 ng kinase) [1]: very little activity is detected with PKCε, PKCζ, PKCη and PKCι

PKCβII
phosphorylation activity (1 µM peptide, 2 ng kinase) [1]: PKCβII and PKCγ have comparable activities to that of PKCα

PKCθ
phosphorylation activity (1 µM peptide, 2 ng kinase) [1]: PKCβI and PKCθ are slightly more active than PKCα
